T1: mIgM (Mus musculus, UniProt P01872)
T1 sequence (P01872 1-454): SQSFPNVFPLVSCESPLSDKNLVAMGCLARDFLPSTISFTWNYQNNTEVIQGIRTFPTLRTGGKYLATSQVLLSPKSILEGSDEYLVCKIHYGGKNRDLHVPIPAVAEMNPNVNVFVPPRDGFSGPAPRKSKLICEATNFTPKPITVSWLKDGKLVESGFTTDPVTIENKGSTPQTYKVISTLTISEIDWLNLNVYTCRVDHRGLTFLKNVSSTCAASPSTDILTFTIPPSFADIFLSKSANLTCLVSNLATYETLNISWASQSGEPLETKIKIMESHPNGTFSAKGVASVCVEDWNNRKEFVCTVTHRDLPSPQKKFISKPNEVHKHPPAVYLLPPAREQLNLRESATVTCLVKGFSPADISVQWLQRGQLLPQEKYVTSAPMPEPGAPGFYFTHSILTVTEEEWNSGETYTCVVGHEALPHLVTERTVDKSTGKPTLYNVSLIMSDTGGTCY

B1: DVD3757: DVD-Ig: VD1 mIgM (B7.6), SS linker, VD2 DNA(PA4); heavy SEQ ID NO 60, light 61 (antibody)
heavy: QVQLKESGPGLVKPSLTLSLTCTVSGFSLNGYGVIWVRQPPGKGLEWMGVIWGNGNTNYNSTLKSRLSISRDTSKSQVFLKMNNLQTEDTAMYFCARSENYYSSPGYFAYWGQGTLVTVSSASTKGPEVQLVESGGGLVKPGGSLKLSCVASGFTFSTYAMSWVRQTPTKRLEWVATISRGGVSTYYPDTVKGRFTISRDNAKNTLYLQMSSLRSEDTAMYYCARPPTIVTTWFAYWGQGTLVTVSS
light: NTVMTQSPTSMFISVGDRVTMNCKASQNVGSDVDWYQQKTGQSPKLLISGTSNRYTGVPDRFTGSGSGTDFTLTISNMQAEDLAVYYCLQYNYNPTFGAGTKLELKRTVAAPDVVMTQTPLSLPVSLGDQASISCRSSQSLVHSNGNTYLHWYLQKPGQSPKLLIYKVSNRFSGVPDRFSGSGSGTDFTLKISRVEAEDLGAYFCSQSTHVPYTFGGPTRLEIKR
B2: DVD3760: DVD-Ig: VD1 mIgM (B7.6), LS linker, VD2 DNA(PA4); heavy SEQ ID NO 66, light 67 (antibody)
heavy: QVQLKESGPGLVKPSLTLSLTCTVSGFSLNGYGVIWVRQPPGKGLEWMGVIWGNGNTNYNSTLKSRLSISRDTSKSQVFLKMNNLQTEDTAMYFCARSENYYSSPGYFAYWGQGTLVTVSSASTKGPSVFPLAPEVQLVESGGGLVKPGGSLKLSCVASGFTFSTYAMSWVRQTPTKRLEWVATISRGGVSTYYPDTVKGRFTISRDNAKNTLYLQMSSLRSEDTAMYYCARPPTIVTTWFAYWGQGTLVTVSS
light: B1 light
B3: DVD3756: DVD-Ig: VD1 mIgM (B7.6), GS linker, VD2 DNA(PA4); heavy SEQ ID NO 58, light 59 (antibody)
heavy: QVQLKESGPGLVKPSLTLSLTCTVSGFSLNGYGVIWVRQPPGKGLEWMGVIWGNGNTNYNSTLKSRLSISRDTSKSQVFLKMNNLQTEDTAMYFCARSENYYSSPGYFAYWGQGTLVTVSSGGGGSGGGGSEVQLVESGGGLVKPGGSLKLSCVASGFTFSTYAMSWVRQTPTKRLEWVATISRGGVSTYYPDTVKGRFTISRDNAKNTLYLQMSSLRSEDTAMYYCARPPTIVTTWFAYWGQGTLVTVSS
light: NTVMTQSPTSMFISVGDRVTMNCKASQNVGSDVDWYQQKTGQSPKLLISGTSNRYTGVPDRFTGSGSGTDFTLTISNMQAEDLAVYYCLQYNYNPTFGAGTKLELKRGGSGGGGSGDVVMTQTPLSLPVSLGDQASISCRSSQSLVHSNGNTYLHWYLQKPGQSPKLLIYKVSNRFSGVPDRFSGSGSGTDFTLKISRVEAEDLGAYFCSQSTHVPYTFGGPTRLEIKR
B4: DVD3752: DVD-Ig: VD1 DNA(PA4), SS linker, VD2 mIgM (B7.6); heavy SEQ ID NO 50, light 51 (antibody)
heavy: EVQLVESGGGLVKPGGSLKLSCVASGFTFSTYAMSWVRQTPTKRLEWVATISRGGVSTYYPDTVKGRFTISRDNAKNTLYLQMSSLRSEDTAMYYCARPPTIVTTWFAYWGQGTLVTVSSASTKGPQVQLKESGPGLVKPSLTLSLTCTVSGFSLNGYGVIWVRQPPGKGLEWMGVIWGNGNTNYNSTLKSRLSISRDTSKSQVFLKMNNLQTEDTAMYFCARSENYYSSPGYFAYWGQGTLVTVSS
light: DVVMTQTPLSLPVSLGDQASISCRSSQSLVHSNGNTYLHWYLQKPGQSPKLLIYKVSNRFSGVPDRFSGSGSGTDFTLKISRVEAEDLGAYFCSQSTHVPYTFGGPTRLEIKRTVAAPNTVMTQSPTSMFISVGDRVTMNCKASQNVGSDVDWYQQKTGQSPKLLISGTSNRYTGVPDRFTGSGSGTDFTLTISNMQAEDLAVYYCLQYNYNPTFGAGTKLELKR

Molecular target: T1, mIgM
Experiment: IgM binding ELISA (mouse IgM)
Conditions: among DVD3751-DVD3760
Protocol: Reactivity of the DVD-Ig proteins with mIgM was determined by enzyme-linked immunosorbent assay (ELISA). Briefly, each well of an Ultra Cruz 96 well microtiter plate (Santa Cruz Biotechnology, Dallas, Tex.) was coated with mIgM at a concentration of 1 μg/ml in 100 μl of PBS. The plate was covered in plastic wrap and incubated overnight at 4° C. Each well of the plate was then washed 3× with 300 μl of PBST. After the final wash, 200 μl of blocking buffer (1% BSA in PBS) was added to each well and the plate incubated at RT for 2 hours. The plate was then washed as above. Rows B-H of the microtiter plate were filled with 100 μl of dilution buffer (1% BSA in PBST). The DVD-Ig proteins were then diluted to […] in dilution buffer and 147 μl of a DVD-Ig protein was added in duplicate to row A of a 96 well plate. For a ½ log dilution, 47 μl was transferred from row A to row B. The pipette tips were replaced with clean tips and 47 μl from row B was transferred to row C. The serial transfers were repeated as above until row G. To assess the binding of the secondary detection reagent to the coated IgM, the final transfer 47 μl was only transferred from G1-G10 to H1-H10 and wells H11 and H12 were left containing 100 μl of dilution buffer. To maintain a 100 μl assay volume, 47 μl was removed from wells H1-H10 and G11-G12 and discarded. After the serial dilution was completed, the plate was incubated for 1-2 hours at RT. The plate was washed as above and then 100 μl of horseradish peroxidase conjugated goat α-hIgG Fc specific, diluted 1:3,000 in dilution buffer, was added to each well. The plate was incubated for 1 hour at RT and then washed 4× as above. The plate was developed by adding 100 μl of 3′,3′,5′,5′-Tetramethylbenzidine (TMB) substrate solution to each well and incubating the plate in the dark for 10-15 minutes. The enzymatic reaction was stopped by adding 100 μl of 1M H2SO4 to each well. The plate was read at 450 nm on an EnVision 2102 multilabel reader (Perkin Elmer, Waltham, Mass.).
DVD-Ig proteins DVD3751-DVD3760 were characterized by IgM binding assay at half-log dilution starting at 10 μg/ml-0.01 μg/ml according to the method of Example 2.5.
IgM binding ELISA: Titrations of the DVD-Ig™ proteins (10 μg/ml to 0.01 μg/ml) were added to ELISA plates coated with murine IgM. Bound antibody was detected with biotinylated anti-human IgG and streptavidin-HRP. EC50 were calculated from the titration curve using Prism6.

potency in IgM binding assay	Molecule
highest potency	B1
highest potency	B2
highest potency	B3

Same assay, conditions: mIgM-coated ELISA; half-log dilution 10 μg/ml-0.01 μg/ml

IgM Binding EC50 [µg/mL]	Molecule
0.205	B4
0.04178	B1
0.03529	B2
0.0331	B3

Test system: DNA
Experiment: Antinuclear antibody (ANA) test
Format: binding
Parameters: key to ANA score, relative result: (X)-(XXX) indicates relative results; (XX): (X)-(XXX) indicates relative results; (X)-(XXX) indicates relative results
Conditions: 10 μg/ml; among DVD3751-DVD3760
Protocol: The cloned BWR4 and PA4 antibodies as well as the DVD-Ig proteins were tested for ANA reactivity using the ANA test kit. Briefly, the DVD-Ig proteins and antibodies were diluted to […] in blocking buffer (1% BSA in PBS). The DVD-Ig proteins and antibodies were added to separate wells of an ANA slide at 50 μl/well and incubated in a moist chamber for 2 hours at room temperature (RT). The wells were then washed 3× with PBS. To detect bound antibodies, Alexa Fluor 488 conjugated goat α-human IgG (α-hIgG) was then added at a dilution of 1:1,000 and the slide incubated in a moist chamber for 1 hour. Unbound detecting antibody was removed by immersing the slide in a jar containing PBS and incubating for 10 minutes at RT with gentle rocking. The prior step was repeated 2× and 10 μl of Prolong® Gold Antifade was added to each well and a 24 mm×60 mm #1 cover glass seated on top. The covered slide was incubated overnight at RT and then sealed by applying clear nail polish to the edges. Binding of the DVD-Ig proteins and antibodies to the slides was assessed by fluorescence microscopy.
DVD-Ig proteins DVD3751-DVD3760 were characterized by antinuclear antibody (ANA) staining at 10 μg/ml according to the method of Example 2.4.
ANA: HEp-2 human tissue culture substrate slides were incubated with 5 μg/ml of the anti-DNA-IgG2a or the DVD-Ig™ binding protein for 2 hours at RT. The slides were washed and bound antibodies were detected with Alexa-488 goat anti-human antibody or DyLight 488 goat anti-mouse antibody.

Molecule	level of ANA staining
B4	highest level of staining

Same assay, conditions: ANA staining at 10 μg/ml

Molecule	ANA score	ANA score, relative result
B4	4	(XXX)
B1	1	–
B2	1	–
B3	1	–

Test system: AM14 TLR9−/− B cells
Experiment: [3H]thymidine incorporation, BCR/TLR9 stimulation of AM14 TLR9-/- B cells
Format: cell-based, mouse
Conditions: at 5 mg/ml; 24 hours, then 6 hours pulse
From the text: (§1) The AM14 B cell receptor (BCR) transgenic mouse has been described previously (Sweet et al. (2010) Autoimmun 43(8): 607-18). Briefly, AM14 is a BCR comprising the AM14 heavy chain and the Vk8 light chain that recognizes murine IgG2a (mIgG2a) of the “a” allotype. Between 95-98% of B cells in a mouse positive for the AM14 heavy chain and Vk8 light chain express the AM14 BCR. To generate AM14 B cells that are deficient in TLR9, TLR7 or FcγRIIB, the AM14 and Vk8 genes were bred to the appropriate knock out mice.
(§2) Primary murine B cells were purified by positive selection using BD Imag™ CD45R/B220 magnetic particles (BD Biosciences, San Jose, Calif.). Briefly, B cells were cultured in RPMI containing, pencillin-streptomycin, β-mercaptoethanol, and 5% heat-inactivated fetal calf serum (FCS) in 96 well flat bottom plates at a density of 4×10^5 cells/well. For stimulation through the BCR and TLR9, B cells were treated with a titration of 0.3 μg/ml-0.03 μg/ml of PA4 or 5 μg/ml to 0.15 μg/ml of a DVD-Ig protein (DVD3751, DVD3752, DVD3754, DVD3755, DVD3759 and DVD3760), unless otherwise noted. Cells were also treated with 1 μg/ml 1826, an experimental ligand for TLR9, as a control. After 24 hours, the cells were pulsed for 6 hours with [3H]thymidine (Perkin Elmer, Waltham Mass.). Incorporation of [3H]thymidine was quantified via a liquid scintillation beta counter (Trilux 1450 MicroBeta, PerkinElmer) according to standard methods.
(§3) DVD-Ig proteins DVD3751-DVD3760 were characterized by ^3H incorporation at […] according to the method of Example 2.6.

Molecule	3H incorporation AM14 TLR9−/−
B4	(512)
B1	(382)
B2	(302)
B3	(459)

Test system: AM14 WT B cells
Experiment: [3H]thymidine incorporation, BCR/TLR9 stimulation of AM14 WT B cells
Format: cell-based, mouse
Parameters: key to 3H incorporation AM14 WT, relative result: (X)-(XXX) indicates relative results; (XX): (X)-(XXX) indicates relative results; (X)-(XXX) indicates relative results; level of 3H incorporation / 3H incorporation AM14 WT: dose or concentration left out as unconfirmed
Conditions: not given
From the text: as §1, §2, §3

Molecule	3H incorporation AM14 WT, relative result
B4	(XX)
B1	(X)
B2	(X)
B3	(X)

Same assay, conditions: 24 hours, then 6 hours pulse

Molecule	3H incorporation AM14 WT
B4	(12682)
B1	(4063)
B2	(4335)
B3	(7793)

Reference: US20150125397A1, “DUAL SPECIFIC BINDING PROTEINS DIRECTED AGAINST IMMUNE CELL RECEPTORS AND AUTOANTIGENS” (ABBVIE INC., priority 2013, published 2015)
